The values below come from article PMC3551999.

One data set deals with TBP;TFIIA (human;human, UniProt P20226;P52655;P52657 1-339;1-376;1-109, |). In words: smFRET.
Another data set concerns the target TBP (human, UniProt P20226 1-339). In words: smFRET.

Sequence of TBP;TFIIA (P20226 whole entry, chain 1 of 3): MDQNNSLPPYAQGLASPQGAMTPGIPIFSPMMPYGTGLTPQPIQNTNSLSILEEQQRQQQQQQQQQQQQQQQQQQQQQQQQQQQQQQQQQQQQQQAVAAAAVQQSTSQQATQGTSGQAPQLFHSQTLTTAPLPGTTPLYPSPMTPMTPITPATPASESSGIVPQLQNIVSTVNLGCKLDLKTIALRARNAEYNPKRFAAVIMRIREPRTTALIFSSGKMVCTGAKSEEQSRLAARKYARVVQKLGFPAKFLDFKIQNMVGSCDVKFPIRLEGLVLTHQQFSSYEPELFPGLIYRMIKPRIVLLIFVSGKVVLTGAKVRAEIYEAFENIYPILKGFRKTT
Sequence of TBP;TFIIA (P52655 whole entry, chain 2 of 3): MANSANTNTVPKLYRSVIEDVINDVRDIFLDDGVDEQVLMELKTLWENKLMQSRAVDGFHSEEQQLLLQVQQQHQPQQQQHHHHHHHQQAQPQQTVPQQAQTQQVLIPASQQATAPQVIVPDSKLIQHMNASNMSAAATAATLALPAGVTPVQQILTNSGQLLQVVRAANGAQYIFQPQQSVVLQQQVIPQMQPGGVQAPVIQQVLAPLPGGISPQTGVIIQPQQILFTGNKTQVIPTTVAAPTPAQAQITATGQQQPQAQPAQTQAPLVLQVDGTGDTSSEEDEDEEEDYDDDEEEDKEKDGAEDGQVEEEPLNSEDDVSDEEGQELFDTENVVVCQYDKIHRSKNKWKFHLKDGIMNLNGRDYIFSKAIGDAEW
Sequence of TBP;TFIIA (P52657 whole entry, chain 3 of 3): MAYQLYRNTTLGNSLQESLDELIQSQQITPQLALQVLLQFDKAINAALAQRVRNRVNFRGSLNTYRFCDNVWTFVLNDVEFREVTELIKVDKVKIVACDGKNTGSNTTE
Sequence of TBP (P20226 whole entry): as the sequence (P20226 whole entry, chain 1 of 3) above

B1: TATA(A3) smFRET construct (mixed)
DNA 1: CAGGCTAAAAAAGGGACG
DNA 2: CGTCCCTTTTTTAGCCTGCACCACCACCACCACCACCA
DNA 3: TGGTGGTGGTGGTGGTGGT
For B1, the binding result with TBP;TFIIA and with TBP was “binds” in each case.
